According to paper PMC5832925, “Hypoxia-inducible lipid droplet-associated protein inhibits adipose triglyceride lipase” (Journal of Lipid Research, 2018):
Values belong to the binder of their own block, whether it stands above or below them.

Columns and labels:
[1] = target: T1, sf-GFP-mATGL288 (mouse ATGL residues 1-288 fused to superfolder GFP) (mouse, UniProt Q8BJ56 1-288); assay: cell-based or functional assay
T1 sequence (looked up): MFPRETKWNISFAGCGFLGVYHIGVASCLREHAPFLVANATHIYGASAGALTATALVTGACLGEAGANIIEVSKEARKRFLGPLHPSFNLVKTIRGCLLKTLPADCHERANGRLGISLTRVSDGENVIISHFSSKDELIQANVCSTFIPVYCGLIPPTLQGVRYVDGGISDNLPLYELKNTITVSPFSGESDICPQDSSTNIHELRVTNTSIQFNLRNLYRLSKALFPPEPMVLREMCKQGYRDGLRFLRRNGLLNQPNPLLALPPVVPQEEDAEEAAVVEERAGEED

[2] = target: T1, sf-GFP-mATGL288 (mouse ATGL residues …); assay: MST; Monolith NT.115; smt3-tagged hHILPDA 1.1 μM to 487 μM titrated against 0.01 μM sf-GFP-mATGL_288; 20 mM phosphate, 300 mM NaCl, 1 mM EDTA, 1 mM DTT pH 7.0, 1% BSA; room temperature; triplicate; settings: both partners purified
[3] = target: T2, sf-GFP-mATGL288 (mouse ATGL residues 1-288 fused to superfolder GFP) (mouse) (UniProt Q8BJ56)
T2 sequence: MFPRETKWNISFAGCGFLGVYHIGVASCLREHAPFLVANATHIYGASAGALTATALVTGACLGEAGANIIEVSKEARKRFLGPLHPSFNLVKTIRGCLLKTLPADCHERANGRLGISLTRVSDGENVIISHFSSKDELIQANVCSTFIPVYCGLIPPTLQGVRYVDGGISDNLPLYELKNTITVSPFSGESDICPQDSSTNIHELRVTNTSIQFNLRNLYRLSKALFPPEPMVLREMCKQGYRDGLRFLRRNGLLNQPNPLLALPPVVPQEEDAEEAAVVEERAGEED

IC50 of inhibition of TGH activity of mATGL288 lysate (without sf-GFP) with CGI-58; HILPDA 44 nM to 44 μM [1]: 1.9 µM | Kd [2]: 247 µM
B1: 6XHis-smt3-TEV-hHILPDA (human hypoxia-inducible lipid droplet-associated protein, full length) (natural protein, UniProt Q9Y5L2 1-63, looked up)
chain: MKHVLNLYLLGVVLTLLSIFVRVMESLEGLLESPSPGTSWTTRSQLANTEPTKGLPDHPSRSM
notes: human HILPDA (Hig-2), 63 amino acids, construct hHILPDA_1-63 in a modified pSUMO vector with 6XHis tag and TEV site; The fusion protein (22 kDa) was used without removal of smt3; a TEV site lies between smt3 and HILPDA; also called smt3-HILPDA fusion protein; source: E. coli BL21-CodonPlus (DE3)-RIL, purified (HisTrap FF, Superdex 200); not shown: smt3, N-terminal, kept

IC50 of inhibition of TGH activity of mATGL288 lysate (without sf-GFP) with CGI-58; HILPDA 1-24 44 nM to 44 μM [3]: 5.4 µM
Binder: MKHVLNLYLLGVVLTLLSIFVRVM (domain or fragment) [hHILPDA_1-24 (6XHis-smt3-TEV fusion)]

IC50 of inhibition of TGH activity of mATGL288 lysate (without sf-GFP) with CGI-58; HILPDA 1-28 44 nM to 44 μM [3]: 5 µM
Binder: MKHVLNLYLLGVVLTLLSIFVRVMESLE (domain or fragment) [hHILPDA_1-28 (6XHis-smt3-TEV fusion)]
